From the supplement of paper PMC9233669
Fewer inactive variants are shown than the library holds.

Legend:
biotinyl-Leu-oxazolone = assay: self-aminoacylation, catalytic enhancement (BLO) (fold over background); higher = more active; k-Seq, kA / k0A0; sequences stand for … in GGGAAUGGAUCCACAUCUACGAAUUC…UUCACUGCAGACUUGACGAAGCUG
Outline: (§1)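 Mutagenized RNA pools with a 21-nt variable region (0.43 μM) reacted with each biotinyl-aminoacyl-oxazolone at 2–1250 μM. Reactions ran in 50 μL HEPES/NaCl/KCl/MgCl2/CaCl2 buffer with 5% acetonitrile, pH 6.9–7.0, for 90 minutes at room temperature. Streptavidin-captured RNA was quantified by triplicate qPCR and Illumina sequencing, and per-sequence fraction reacted was fit to a pseudo-first-order model with 1000 bootstraps. Catalytic enhancement is median kA divided by the uncatalyzed rate, the low-activity peak of a bimodal Gaussian fit.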

biotinyl-Val-oxazolone = assay: self-aminoacylation, catalytic enhancement (BVO) (fold over background); higher = more active; k-Seq, kA / k0A0; sequences stand for … in GGGAAUGGAUCCACAUCUACGAAUUC…UUCACUGCAGACUUGACGAAGCUG
Outline: as §1

biotinyl-Trp-oxazolone = assay: self-aminoacylation, catalytic enhancement (BWO) (fold over background); higher = more active; k-Seq, kA / k0A0; sequences stand for … in GGGAAUGGAUCCACAUCUACGAAUUC…UUCACUGCAGACUUGACGAAGCUG
Outline: as §1

biotinyl-Phe-oxazolone = assay: self-aminoacylation, catalytic enhancement (BFO) (fold over background); higher = more active; k-Seq, kA / k0A0; sequences stand for … in GGGAAUGGAUCCACAUCUACGAAUUC…UUCACUGCAGACUUGACGAAGCUG
Outline: as §1

biotinyl-Met-oxazolone = assay: self-aminoacylation, catalytic enhancement (BMO) (fold over background); higher = more active; k-Seq, kA / k0A0; sequences stand for … in GGGAAUGGAUCCACAUCUACGAAUUC…UUCACUGCAGACUUGACGAAGCUG
Outline: as §1

biotinyl-Ile-oxazolone = assay: self-aminoacylation, catalytic enhancement (BIO) (fold over background); higher = more active; k-Seq, kA / k0A0; sequences stand for … in GGGAAUGGAUCCACAUCUACGAAUUC…UUCACUGCAGACUUGACGAAGCUG
Outline: as §1

Sequence: ACUCACCUAGGUCAUAGGGUG [Fam2.2 aminoacylation ribozyme variant]
- self-aminoacylation (biotinyl-Leu-oxazolone): 1.39
- self-aminoacylation (biotinyl-Val-oxazolone): 1.36
- self-aminoacylation (biotinyl-Trp-oxazolone): 1.58
- self-aminoacylation (biotinyl-Phe-oxazolone): 1.46
- self-aminoacylation (biotinyl-Met-oxazolone): 1.57
- self-aminoacylation (biotinyl-Ile-oxazolone): 1.31

Sequence: ACUCACCUAGGUCAUCGCGUG [Fam2.2 aminoacylation ribozyme variant]
- self-aminoacylation (biotinyl-Leu-oxazolone): 10.6
- self-aminoacylation (biotinyl-Val-oxazolone): 6.93
- self-aminoacylation (biotinyl-Trp-oxazolone): 9.66
- self-aminoacylation (biotinyl-Phe-oxazolone): 70
- self-aminoacylation (biotinyl-Met-oxazolone): 7.39
- self-aminoacylation (biotinyl-Ile-oxazolone): 5.51

Sequence: ACUCACCUAGGUCAUCGGGUU [Fam2.2 aminoacylation ribozyme variant]
- self-aminoacylation (biotinyl-Leu-oxazolone): 11.3
- self-aminoacylation (biotinyl-Val-oxazolone): 5.06
- self-aminoacylation (biotinyl-Trp-oxazolone): 6.68
- self-aminoacylation (biotinyl-Phe-oxazolone): 31.3
- self-aminoacylation (biotinyl-Met-oxazolone): 8.19
- self-aminoacylation (biotinyl-Ile-oxazolone): 5.92

Sequence: ACUCACCUAGGUCUUCGGGUG [Fam2.2 aminoacylation ribozyme variant]
- self-aminoacylation (biotinyl-Leu-oxazolone): 6.01
- self-aminoacylation (biotinyl-Val-oxazolone): 4.96
- self-aminoacylation (biotinyl-Trp-oxazolone): 6.33
- self-aminoacylation (biotinyl-Phe-oxazolone): 29.7
- self-aminoacylation (biotinyl-Met-oxazolone): 4.6
- self-aminoacylation (biotinyl-Ile-oxazolone): 4.2

Sequence: ACUCACCUAGUUCAUCGGGUG [Fam2.2 aminoacylation ribozyme variant]
- self-aminoacylation (biotinyl-Leu-oxazolone): 3.86
- self-aminoacylation (biotinyl-Val-oxazolone): 3.36
- self-aminoacylation (biotinyl-Trp-oxazolone): 3.85
- self-aminoacylation (biotinyl-Phe-oxazolone): 19.7
- self-aminoacylation (biotinyl-Met-oxazolone): 3.46
- self-aminoacylation (biotinyl-Ile-oxazolone): 2.87

Sequence: ACUCGCCUAGGUCAUCGGGUG [Fam2.2 aminoacylation ribozyme variant]
- self-aminoacylation (biotinyl-Leu-oxazolone): 11
- self-aminoacylation (biotinyl-Val-oxazolone): 6.73
- self-aminoacylation (biotinyl-Trp-oxazolone): 10.9
- self-aminoacylation (biotinyl-Phe-oxazolone): 62.9
- self-aminoacylation (biotinyl-Met-oxazolone): 9.99
- self-aminoacylation (biotinyl-Ile-oxazolone): 6.84

Sequence: ACUUCCCUGGUCAUCGAGUGA [Fam2.1 aminoacylation ribozyme variant]
- self-aminoacylation (biotinyl-Leu-oxazolone): 9.49
- self-aminoacylation (biotinyl-Val-oxazolone): 5.69
- self-aminoacylation (biotinyl-Trp-oxazolone): 12.1
- self-aminoacylation (biotinyl-Phe-oxazolone): 41.8
- self-aminoacylation (biotinyl-Met-oxazolone): 9.66
- self-aminoacylation (biotinyl-Ile-oxazolone): 4.96

Sequence: AGACACCUAGGUCAUCGGGUG [Fam2.2 aminoacylation ribozyme variant]
- self-aminoacylation (biotinyl-Leu-oxazolone): 3.29
- self-aminoacylation (biotinyl-Val-oxazolone): 2.32
- self-aminoacylation (biotinyl-Trp-oxazolone): 4.31
- self-aminoacylation (biotinyl-Phe-oxazolone): 20.6
- self-aminoacylation (biotinyl-Met-oxazolone): 3.07
- self-aminoacylation (biotinyl-Ile-oxazolone): 3.01

Sequence: AGAUUUGCUAAUAGUCGCAAG [Fam3.1 aminoacylation ribozyme variant]
- self-aminoacylation (biotinyl-Leu-oxazolone): 2.39
- self-aminoacylation (biotinyl-Val-oxazolone): 1.8
- self-aminoacylation (biotinyl-Trp-oxazolone): 1.88
- self-aminoacylation (biotinyl-Phe-oxazolone): 2.47
- self-aminoacylation (biotinyl-Met-oxazolone): 1.58
- self-aminoacylation (biotinyl-Ile-oxazolone): 1.91

Sequence: AGCCACCUAGGUCAUCGGGUG [Fam2.2 aminoacylation ribozyme variant]
- self-aminoacylation (biotinyl-Leu-oxazolone): 8.17
- self-aminoacylation (biotinyl-Val-oxazolone): 6.3
- self-aminoacylation (biotinyl-Trp-oxazolone): 10.3
- self-aminoacylation (biotinyl-Phe-oxazolone): 81.6
- self-aminoacylation (biotinyl-Met-oxazolone): 7.16
- self-aminoacylation (biotinyl-Ile-oxazolone): 6.24

Sequence: AGGCUUGCUAAUAGUCGCAAG [Fam3.1 aminoacylation ribozyme variant]
- self-aminoacylation (biotinyl-Leu-oxazolone): 2.31
- self-aminoacylation (biotinyl-Val-oxazolone): 1.96
- self-aminoacylation (biotinyl-Trp-oxazolone): 2.08
- self-aminoacylation (biotinyl-Phe-oxazolone): 3.69
- self-aminoacylation (biotinyl-Met-oxazolone): 2.14
- self-aminoacylation (biotinyl-Ile-oxazolone): 2.17

Sequence: AGGUUUGAUAAUAGUCGCAAG [Fam3.1 aminoacylation ribozyme variant]
- self-aminoacylation (biotinyl-Leu-oxazolone): 1.67
- self-aminoacylation (biotinyl-Val-oxazolone): 1.54
- self-aminoacylation (biotinyl-Trp-oxazolone): 1.8
- self-aminoacylation (biotinyl-Phe-oxazolone): 3.51
- self-aminoacylation (biotinyl-Met-oxazolone): 1.57
- self-aminoacylation (biotinyl-Ile-oxazolone): 1.55

Sequence: AGGUUUGCUAAUAAUCGCAAG [Fam3.1 aminoacylation ribozyme variant]
- self-aminoacylation (biotinyl-Leu-oxazolone): 0.822
- self-aminoacylation (biotinyl-Val-oxazolone): 0.949
- self-aminoacylation (biotinyl-Trp-oxazolone): 0.725
- self-aminoacylation (biotinyl-Phe-oxazolone): 1.91
- self-aminoacylation (biotinyl-Met-oxazolone): 0.753
- self-aminoacylation (biotinyl-Ile-oxazolone): 0.899

Sequence: AGGUUUGCUAAUAGACGCAAG [Fam3.1 aminoacylation ribozyme variant]
- self-aminoacylation (biotinyl-Leu-oxazolone): 0.594
- self-aminoacylation (biotinyl-Val-oxazolone): 0.752
- self-aminoacylation (biotinyl-Trp-oxazolone): 0.609
- self-aminoacylation (biotinyl-Phe-oxazolone): 0.835
- self-aminoacylation (biotinyl-Met-oxazolone): 0.529
- self-aminoacylation (biotinyl-Ile-oxazolone): 0.608

Sequence: AGGUUUGCUAAUAGGCGCAAG [Fam3.1 aminoacylation ribozyme variant]
- self-aminoacylation (biotinyl-Leu-oxazolone): 0.626
- self-aminoacylation (biotinyl-Val-oxazolone): 0.734
- self-aminoacylation (biotinyl-Trp-oxazolone): 1.18
- self-aminoacylation (biotinyl-Phe-oxazolone): 1.16
- self-aminoacylation (biotinyl-Met-oxazolone): 0.736
- self-aminoacylation (biotinyl-Ile-oxazolone): 0.85

Sequence: AGGUUUGGUAAUAGUCGCAAG [Fam3.1 aminoacylation ribozyme variant]
- self-aminoacylation (biotinyl-Leu-oxazolone): 1.77
- self-aminoacylation (biotinyl-Val-oxazolone): 1.41
- self-aminoacylation (biotinyl-Trp-oxazolone): 2.22
- self-aminoacylation (biotinyl-Phe-oxazolone): 3.19
- self-aminoacylation (biotinyl-Met-oxazolone): 1.72
- self-aminoacylation (biotinyl-Ile-oxazolone): 1.82

Sequence: AGUACCAUGGUCAUCGAGUGA [Fam2.1 aminoacylation ribozyme variant]
- self-aminoacylation (biotinyl-Leu-oxazolone): 7.11
- self-aminoacylation (biotinyl-Val-oxazolone): 4.22
- self-aminoacylation (biotinyl-Trp-oxazolone): 8.32
- self-aminoacylation (biotinyl-Phe-oxazolone): 29.9
- self-aminoacylation (biotinyl-Met-oxazolone): 6.66
- self-aminoacylation (biotinyl-Ile-oxazolone): 4.22

Sequence: AGUACCCAGGUCAUCGAGUGA [Fam2.1 aminoacylation ribozyme variant]
- self-aminoacylation (biotinyl-Leu-oxazolone): 5.05
- self-aminoacylation (biotinyl-Val-oxazolone): 3.2
- self-aminoacylation (biotinyl-Trp-oxazolone): 6.61
- self-aminoacylation (biotinyl-Phe-oxazolone): 16.6
- self-aminoacylation (biotinyl-Met-oxazolone): 5.45
- self-aminoacylation (biotinyl-Ile-oxazolone): 3.36

Sequence: AGUACCCUAGUCAUCGAGUGA [Fam2.1 aminoacylation ribozyme variant]
- self-aminoacylation (biotinyl-Leu-oxazolone): 4.92
- self-aminoacylation (biotinyl-Val-oxazolone): 3.13
- self-aminoacylation (biotinyl-Trp-oxazolone): 6.29
- self-aminoacylation (biotinyl-Phe-oxazolone): 24.6
- self-aminoacylation (biotinyl-Met-oxazolone): 4.86
- self-aminoacylation (biotinyl-Ile-oxazolone): 3.2

Sequence: AGUACCCUGAUCAUCGAGUGA [Fam2.1 aminoacylation ribozyme variant]
- self-aminoacylation (biotinyl-Leu-oxazolone): 6.72
- self-aminoacylation (biotinyl-Val-oxazolone): 3.5
- self-aminoacylation (biotinyl-Trp-oxazolone): 8.64
- self-aminoacylation (biotinyl-Phe-oxazolone): 26.6
- self-aminoacylation (biotinyl-Met-oxazolone): 6.82
- self-aminoacylation (biotinyl-Ile-oxazolone): 3.22

Sequence: AGUACCCUGGUCAACGAGUGA [Fam2.1 aminoacylation ribozyme variant]
- self-aminoacylation (biotinyl-Leu-oxazolone): 4.71
- self-aminoacylation (biotinyl-Val-oxazolone): 2.63
- self-aminoacylation (biotinyl-Trp-oxazolone): 5.71
- self-aminoacylation (biotinyl-Phe-oxazolone): 21.6
- self-aminoacylation (biotinyl-Met-oxazolone): 5.55
- self-aminoacylation (biotinyl-Ile-oxazolone): 2.91

Sequence: AGUACCCUGGUCAUCCAGUGA [Fam2.1 aminoacylation ribozyme variant]
- self-aminoacylation (biotinyl-Leu-oxazolone): 5.87
- self-aminoacylation (biotinyl-Val-oxazolone): 2.86
- self-aminoacylation (biotinyl-Trp-oxazolone): 6.9
- self-aminoacylation (biotinyl-Phe-oxazolone): 34.7
- self-aminoacylation (biotinyl-Met-oxazolone): 5.15
- self-aminoacylation (biotinyl-Ile-oxazolone): 3.06

Sequence: AGUACCCUGGUCCUCGAGUGA [Fam2.1 aminoacylation ribozyme variant]
- self-aminoacylation (biotinyl-Leu-oxazolone): 5.58
- self-aminoacylation (biotinyl-Val-oxazolone): 2.81
- self-aminoacylation (biotinyl-Trp-oxazolone): 4.66
- self-aminoacylation (biotinyl-Phe-oxazolone): 18.1
- self-aminoacylation (biotinyl-Met-oxazolone): 4.14
- self-aminoacylation (biotinyl-Ile-oxazolone): 2.7

Sequence: AGUACCCUUGUCAUCGAGUGA [Fam2.1 aminoacylation ribozyme variant]
- self-aminoacylation (biotinyl-Leu-oxazolone): 6.28
- self-aminoacylation (biotinyl-Val-oxazolone): 3.48
- self-aminoacylation (biotinyl-Trp-oxazolone): 6.7
- self-aminoacylation (biotinyl-Phe-oxazolone): 18.4
- self-aminoacylation (biotinyl-Met-oxazolone): 5.76
- self-aminoacylation (biotinyl-Ile-oxazolone): 3.06

Sequence: AGUCACCUAGGUCACCGGGUG [Fam2.2 aminoacylation ribozyme variant]
- self-aminoacylation (biotinyl-Leu-oxazolone): 4.38
- self-aminoacylation (biotinyl-Val-oxazolone): 4.47
- self-aminoacylation (biotinyl-Trp-oxazolone): 6.49
- self-aminoacylation (biotinyl-Phe-oxazolone): 31.7
- self-aminoacylation (biotinyl-Met-oxazolone): 4.49
- self-aminoacylation (biotinyl-Ile-oxazolone): 4.07

Sequence: AGUCACCUAGGUCAUCCGGUG [Fam2.2 aminoacylation ribozyme variant]
- self-aminoacylation (biotinyl-Leu-oxazolone): 6.49
- self-aminoacylation (biotinyl-Val-oxazolone): 5.32
- self-aminoacylation (biotinyl-Trp-oxazolone): 7.84
- self-aminoacylation (biotinyl-Phe-oxazolone): 56.9
- self-aminoacylation (biotinyl-Met-oxazolone): 6.2
- self-aminoacylation (biotinyl-Ile-oxazolone): 5.6
